Source: the supplement of paper PMC9170038

Test system: MS2 coat protein
Test: apparent KD of MS2 coat protein; designed switch direction (-1 OFF switch, 1 ON switch): 1; higher = weaker reporter binding
Outline: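 Designed RNA switches with common flanks were transcribed on Illumina chips by stalled E. coli RNA polymerase and titrated with SNAP-549-labelled MS2 coat protein, from 0.7 or 1.5 nM doubling to 3 µM, in Tris-HCl pH 7.5 buffer with KCl, MgCl2, BSA, DTT, tRNA and Tween-20. Steps lasted 0.8–1.5 h (lowest) to 10–20 min (highest). Titrations ran without input, with 200 uM small-molecule ligand, or with an oligonucleotide input. Normalised cluster fluorescence was curve-fitted, and apparent KD is the per-design median over clusters.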

[1] = input ligand: microRNA oligo, concentration not stated
[2] = Eterna round: R95, input ligand: FMN 200 uM
[3] = Eterna round: R95, input ligand: microRNA oligo, concentration not stated
[4] = Eterna round: R95, input ligand: none

Sequence	apparent KD of MS2 coat protein (input ligand: FMN 200 uM)	apparent KD of MS2 coat protein [1]	apparent KD of MS2 coat protein (input ligand: none)	apparent KD of MS2 coat protein [2]	apparent KD of MS2 coat protein [3]	apparent KD of MS2 coat protein [4]
GUGGAGAAUUAAGGAUAUCGAGUCAAGAUGUUAAACAUGAGGAUCACCCAUGUGGGUUGCGGUAUCGAGAAGGUAAAUUACGGG [salish99_SSNG2_r04_504] (Eterna round: R96, puzzle: Same State NG 2)	28.3 nM	25.1 nM	34.1 nM			
UUGAAUAAUUAAGGAUAUCGAGUACAUAUGUUAAACAUGAGGAUCACCCAUGUGGGUUGCGGUAUCGAGAAGGUAAAAGACAAG [Mat - Same State NG 2 - JL mod - D59] (Eterna round: R96, puzzle: Same State NG 2)	31.2 nM	25.6 nM	42 nM			
AAAUAAAACACAGGAUAUGCAGUCAAAACGACGGCAGAAGGGUGAGACAUGAGGAUCACCCAUGUACACAUCCCACGGAUGUGC [Anonised] (Eterna round: R96, puzzle: Same State NG 1)	1060 nM	546 nM	1060 nM			
GCUCGAUGAGCGUCCUACAUGAGGAUCACCCAUGUUCGUGGGCAGGAUAUUUACAUGCAGAGUGUAGAGAAGGGCCCAUCGAGC [SameState NG3 #65] (Eterna round: R96, puzzle: Same State NG 3)	546 nM	482 nM	477 nM			
GUUCCAAGGUGAGGAUAUGCAGAGGAUCACCCUGUAGAAGGCAUCAGGUGAGGAUAUGCAGAGGAUCACCCUGUAGAAGGCAUC [pwkr ssNG DX.10] (Eterna round: R96, puzzle: Same State NG 1)	105 nM	180 nM	295 nM			
AGUCCAGCCUGAGCUGGACAAAAGCAUGUACAUGAGGAUCACCCAUGUUCAUGUACAAGCUUUUUGCUCGUCUUAGU [salish99_208a_r3_061] (puzzle: Sensor for hsa-mir-208a)				481 nM	15.1 nM	528 nM
GUGGUCAGACAUGAGGAUCACCCAUGUGGAAUAAAUAAGGAAGAGGAUAUCGAAUAUAGGAUAUACGAGAAGGUUUGGUUGGUG (Eterna round: R96, puzzle: Same State NG 3)	117 nM	77.5 nM	94.6 nM			
AAGUUAAGCUUUUUGUUCUGCCUAUUCUAACAUGAGGAUCACCCAUGUAGUCAGACGACUGCGUGUGUAGUUGAGAU [JR_SHM208A_Sub029] (puzzle: Sensor for hsa-mir-208a)				121 nM	194 nM	111 nM
CGUCCGGCCUGUGCUGGCCGGUGGCUUGUACAUGAGGAUCACCCAUGUUCUUGUGCUGGCUUUUUGCUCGUCUUGUG [salish99_mir208a_021] (puzzle: Sensor for hsa-mir-208a)				37 nM	18.9 nM	43.8 nM
UAGAUUAGAAGUUAACAUGAGGAUCACCCAUGUAUUGGAACAGAGGAUAUGCAUGUUUGAUAGUAGCAGAAGGCUGAAGGUGGA [JR_SSNG3_Sub025] (Eterna round: R96, puzzle: Same State NG 3)		68.4 nM				
AAACGGCCGAACGGAGGGCCACAUGAGGAUCACCCAUGUACAUAGGAUAUCACGCCAACGAAGCGUGAGAAGGGUGAUUAAAAC [Anriusxees] (Eterna round: R96, puzzle: Same State NG 3)	341 nM	4.64 nM	104 nM			
GCUACCAUUGAUGCCUACAUGAGGAUCACCCAUGUAUGUAGGCAGGAUAUCGAUUGCAAAGCGAUCGAGAAGGGCUUAGGUAGC [Mat - Same State NG 3 - JL Mod - D93] (Eterna round: R96, puzzle: Same State NG 3)	56 nM	103 nM	149 nM			
CACCCAAAGGAAGGAUAUAGGGACUCGAGGACAACAUGAGGAUCACCCAUGUCCCGCCAUCGGCCUUAGAAGGUCCAAGGGAAC [Eternabot solution 7] (Eterna round: R96, puzzle: Same State NG 2)	18.8 nM	17.1 nM	21.8 nM			
UUUAGAGGCGCAGGAUAUGGUGAGGAUCACCCACUAGAAGGGUGCACAUGAGAAUCGGACAUGAGGAUCACCCAUGUUUGGCGC (Eterna round: R96, puzzle: Same State NG 1)	806 nM	554 nM	816 nM			
GUGGCGGGUUGAGGAUAUUGGUUGCCUCUGUUUUACAUGAGGAUCACCCAUGUGGGUUGCGGUUUCGAGAAGGGAGGUUGCUGG [salish99_SSNG2_r04_054] (Eterna round: R96, puzzle: Same State NG 2)	323 nM	420 nM	399 nM			
GGUCGGAACCACAUGAGGAUCACCCAUGUUCCGGAAACGGCGCAGGAUAUCUGUCCGAAAAGGUCAGAGAAGGGUGAACCGACC [Fiskers NG3ss - 78] (Eterna round: R96, puzzle: Same State NG 3)	462 nM	314 nM	236 nM			
UCUCGGGUCGUAGGAUAUGUAGGAUAUGUACAUGAGGAUCACCCAUGUCUACCAGAGACAGAAGGACAGAAGGACGAGCCGAGC [pwkr ssNG2 2FMN 1F5s.7] (Eterna round: R96, puzzle: Same State NG 2)	19.5 nM	19 nM	36.3 nM			
UAGUGCAUUAGAGGAUAUUCUUACGACACGAGUAAGACAUGAGGAUCACCCAUGUCGUGACAUGGGAAGAAGGCUGAUGUGCUA [Omei SS(NG)2 Bv6] (Eterna round: R96, puzzle: Same State NG 2)	12 nM	27.1 nM	35.8 nM			
GUAGCAUACCGAGGAUAUUCAAACCGGAAACGGACAUGAGGAUCACCCAUGUGGCGAAAGCCUUGGGAGAAGGCGGAAUGCUAC [Xeonanis - 20 Mod76] (Eterna round: R96, puzzle: Same State NG 2)	6.08 nM	21.7 nM	19.1 nM			
UGAACCUUCACAGGAUAUCAUGCGAAAAUUGCGUGAGAAGGGUGGAUGUGGUGUUCAUAGUUGCACAUGAGGAUCACCCAUGUA [SameState NG1 #51] (Eterna round: R96, puzzle: Same State NG 1)	115 nM	124 nM	237 nM			
ACAUGACAUGAGGAUCACCCAUGUCGAUAAAAGCAAGGAUAUGGGCCCGAGUCGUUCGGACCAGAAGGUGCGUCUC [Orso] (Eterna round: R96, puzzle: Same State 1)	18.3 nM	16.3 nM	23.8 nM			
AGAGCCGGCACUGAGGAUAUUCAUAUUAAAACAUGAGGAUCACCCAUGUAGGCCAGAAGGCCUUGGGAGAAGGCAGGUCGGCUCA [Mat - Same State 2 - Mod of UCT - D58] (puzzle: Same State 2)				25.2 nM	212 nM	484 nM
GGUAGGUUACUACCAACACAUGAGGAUCACCCAUGUUUUGGGAAGGAUAUGGUACCUAUUUGGUACCAGAAGGUCCAGUUAAUG [salish99_SSNG3_r04_701] (Eterna round: R96, puzzle: Same State NG 3)	87 nM	161 nM	122 nM			
GUACAGAUCAGAGGAUAUCACGUCGAUUAGACGUGAGAAGGCUGAUCACACAUGAAUAUUAGUACAUGAGGAUCACCCAUGUAC [SSNG1/15-A2] (Eterna round: R96, puzzle: Same State NG 1)	14 nM	12.5 nM	16.7 nM			
UUGAUAUGCGCAGGAUAUGGUGAGGAUCACCCACUAGAAGGGUGCACAUGAGAAUCGAACAUGAGGAUCACCCAUGUUCUGAGC (Eterna round: R96, puzzle: Same State NG 1)	831 nM	295 nM	1030 nM			
GCGAUAUGAUGUUACAUGAGGAUCACCCAUGUAGCGAUAGCUAAGGAUAUUUGAAAGGGAGGAGAAGAGAAGGUAGGAUCACGC [AK SSNG3-V2-22.2] (Eterna round: R96, puzzle: Same State NG 3)	24.6 nM	18.6 nM	20.3 nM			
AAUUAAGAUCAAGGAUAUCACGUCGAUUAGACGUGAGAAGGUGAUCAUAACAUGAGGAUCACCCAUGUAUUACAUGAAUUAAUU [SSNG1/2-B2] (Eterna round: R96, puzzle: Same State NG 1)	85.7 nM	330 nM	397 nM			
AGCUUGUGGGUAGGAUAUUUAGGAUAUGCGGAAGACUAAGUCUGUAGGUCACCUAACGCAGAAGGAGAGAAGGACCCUUCAGCA [pwkr ssNG2 2FMN + F9.30] (Eterna round: R96, puzzle: Same State NG 2)	353 nM	21.1 nM	91.3 nM			
AACGUGUAGGAAGGAUAUAUUGUUCAAGGGAUUGCAAUCUCUAACAUGAGGAUCACCCAUGUAGAGUAGAAGGUCCACCGCAGG [Eternabot solution 40] (Eterna round: R96, puzzle: Same State NG 2)	14.1 nM	13.5 nM	19.2 nM			
ACUAUUAAUGCAGGAUAUGAUUAACAUGAGGAUCACCCAUGUGGUGUUGUGAGUAAGGAGAGUGAUCAGAAGGGCAUUUUUUUU [JMF's solution 37] (Eterna round: R96, puzzle: Same State NG 2)	992 nM	466 nM	629 nM			
